{
  "source": "patent US6596319B2",
  "about": "“Immunomodulating compositions for treatment of immune system disorders” (Lorus Therapeutics Inc., priority 2001, dated 2003)",
  "molecules": {"B1": {"name": "Monocyte-CSF: monocyte colony stimulating factor (protein, UniProt P09603 33-554, looked up)", "Macrophage colony-stimulating …": "EEVSEYCSHMIGSGHLQSLQRLIDSQMETSCQITFEFVDQEQLKDPVCYLKKAFLLVQDIMEDTMRFRDNTPNAIAIVQLQELSLRLKSCFTKDYEEHDKACVRTFYETPLQLLEKVKNVFNETKNLLDKDWNIFSKNCNNSFAECSSQDVVTKPDCNCLYPKAIPSSDPASVSPHQPLAPSMAPVAGLTWEDSEGTEGSSLLPGEQPLHTVDPGSAKQRPPRSTCQSFEPPETPVVKDSTIGGSPQPRPSVGAFNPGMEDILDSAMGTNWVPEEASGEASEIPVPQGTELSPSRPGGGSMQTEPARPSNFLSASSPLPASAKGQQPADVTGTALPRVGPVRPTGQDWNHTPQKTDHPSALLRDPPEPGSPRISSLRPQGLSNPSTLSAQPQLSRSHSSGSVLPLGELEGRRSTRDRRSPAEPEGGPASEGAARPLPRFNSVPLTDTGHERQSEGSFSPQLQESVFHLLVPSVILVLLAVGGLLFYRWRRRSHQEPQRADSPLEQPEGSPLTQDDRQVELPV"}},
  "key": {"Chang hepatoma cells [1]": {"test_system": "Chang hepatoma cells", "assay": "Monocyte/Macrophage Cytotoxicity Assay to cell line (51Cr release)", "details": "peripheral blood monocytes from cancer patients; activator + Indomethacin (up to 5 ng/ml)", "procedure": "(§3) This procedure has been named the “Monocyte/Macrophage Cytotoxicity Assay to Cell Lines and Autologous Tumor Cells,” or “Cytotoxicity Assay” for short.\n(§4) The method requires isolation of monocytes/macrophages phages, which is accomplished as follows: Venous blood is collected aseptically in heparinized Vacutainer tubes. Sterile preservative-free heparin is added to a final concentration of 20 units/ml. The blood is diluted 3:1 in Hanks balanced salt solution (HBSS), layered onto lymphocyte separation medium and centrifuged to obtain a band of peripheral blood mononuclear cells (PBMNs). After centrifugation, the mononuclear cell layer is recovered from the interface, washed twice in medium (medium is Roswell Park Memorial Institute [RPMI] 1640 media supplemented with 10% heat-inactivated fetal bovine serum, 50 units/ml penicillin, and 50 μg/ml streptomycin) and monocytes are enumerated by latex ingestion. Monocytes are isolated by adherence in 96-well plastic plates (for 2 hours at 37° C., followed by two cycles of washing with medium). […]\n(§5) For studies using a standard cell line, ^51Cr (chromium) labelled Chang hepatoma cells are used because this cell line is insensitive to natural killer cell cytotoxicity. […] After 24 hours, supernatants are collected and ^51Cr release is quantitated. The percent specific cytotoxicity is calculated as: [formula] […]"}, "peritoneal macrophages [2]": {"test_system": "peritoneal macrophages", "assay": "NO release from macrophages harvested from treated mice", "type": "in vivo, C57BL/6 mice", "details": "mice injected with nothing; in vitro stimulant IFN-γ", "description": "(§1) In vivo production of TNF-α over 72 hours was studied on macrophages harvested from C57BL/6 mice that, prior to harvest, were treated with nothing, injected intraperitoneally 72 hours previously with 1.5 and 4% protease peptone, or injected intraperitoneally 72, 48, or 24 hours previously with 1.0 ml Virulizin™ diluted 1:10 in PBS. The macrophage monolayers were treated in vitro for 24 hours with IFN-γ (50 μ/ml), LPS only (5 ng/ml), or the combination thereof. TNF and NO were determined as recited above.\nIn vivo production of NO over 72 hrs was studied with macrophage cells and tests under the same conditions described above with respect to TNF-α production. There was a small spontaneous release of NO measured at 24 and 48 hrs after intraperitoneal injection of VIRULIZIN™ (hereinafter IP Virulizin™). […] The harvested macrophages that had received IP VIRULIZIN™ 72 hrs before responded no differently than macrophages that had no VIRULIZIN™ pretreatment. […] The maximum response was with macrophages pretreated with VIRULIZIN™ 48 hrs before harvesting and testing."}, "peritoneal macrophages [3]": {"test_system": "peritoneal macrophages", "assay": "TNF release from macrophages harvested from treated mice", "type": "in vivo, C57BL/6 mice", "details": "mice injected with nothing; in vitro stimulant IFN-γ, 24 hours", "description": "as §1\nAs described, the release of TNF-α from macrophages was examined in the absence of a stimulus or with IFN-γ, LPS, or LPS/IFN-γ after 24 hrs in vitro culture. […] Likewise, there was a synergistic effect of LPS and IFN-γ on harvested macrophages that were stimulated 24 and 48 hrs but not 72 hrs before testing."}, "peritoneal macrophages [4]": {"test_system": "peritoneal macrophages", "assay": "In vitro stimulation of protease peptone peritoneal macrophages: TNF (ELISA)", "type": "cell-based, C57BL/6 mice", "details": "stimulant alone; 24 hours of in vitro culture", "description": "(§2) Peritoneal macrophages were harvested from C57BL/6 mice 72 hours after intraperitoneal injection of 1.5 ml of 4% protease peptone. The macrophages were then stimulated in vitro with medium alone, 50 ng LPS, or VIRULIZIN™. Measurements of the stimulation was done with respect to TNF (by ELISA) and NO (by spectrophotometric assay using the Greiss reagent) levels in duplicate experiments. Standard error of the mean between duplicate experiments was less than 10%. […] Nitric oxide production was zero.\nIn vitro synergy of Virulizin™ with LPS for TNF-α release was also addressed. Peritoneal macrophages were harvested from C57BL/6 mice after the same aforementioned treatment. The macrophages were then stimulated with 50 ng LPS alone or LPS with different dilutions of VIRULIZIN™. As above, TNF was determined via ELISA. As noted in Table XIX, LPS alone induces about 2900 pg/ml of TNF-α release from mouse peritoneal macrophages in vitro compared to 262 pg/ml for medium. When LPS is combined with VIRULIZIN™, there is about an 800 pg/ml increase in TNF-alpha release at dilutions of VIRULIZIN™ 1:5 and 1:10 and enhanced release to at least 1:40.\nIn vitro synergy of Virulizin™ with IFN-γ for TNF-α release was studied, using the same peritoneal mouse macrophages derived from C57BL/6 mice treated as above. […] The same macrophages stimulated with either LPS or IFN-γ release almost 3000 pg/ml of TNF-α. […]"}, "peritoneal macrophages [5]": {"test_system": "peritoneal macrophages", "assay": "In vitro stimulation of protease peptone peritoneal macrophages: NO (Greiss reagent)", "type": "cell-based, C57BL/6 mice", "details": "stimulant alone", "description": "as §2\nIn vitro synergy of Virulizin™ with LPS for nitric oxide (NO) was addressed in the same procedure as above, except NO was determined in the supernatant of the treated macrophages. As above, the assay for NO is spectrophotometric and uses a Greiss reagent. As noted in the table above, LPS causes some release of NO (9 μm). VIRULIZIN™ in synergy with LPS induces a marked increase in NO production (13-27 μm) to dilutions of 1:40.\nIn vitro synergy of Virulizin™ with IFN-γ for NO release was studied, using the same peritoneal mouse macrophages derived from C57BL/6 mice treated as above. The data are included in the table above concerning “Synergistic Combinations.” As shown, LPS and IFN-γ alone each enhanced NO production (9 and 7 μm, respectively). VIRULIZIN™ added to IFN-γ induced a marked increase in NO production (47-57 μm) that almost equaled the combination of LPS and IFN-γ (74 μM). […]"}, "Chang hepatoma cells [6]": {"test_system": "Chang hepatoma cells", "procedure": "as §3, §4, §5"}},
  "note": "Read-outs that look alike come from different tables or passages of the source.",
  "data": [
    {"molecule": "GM-CSF: granulocyte macrophage colony stimulating factor", "values": [
      {"measurement": "% Cytotoxicity", "setting": "Chang hepatoma cells [1]", "result": "17.8 ± 8", "unit": "%"}
    ]},
    {"molecule": "IFN-γ: gamma interferon", "values": [
      {"measurement": "NO", "setting": "peritoneal macrophages [2]", "result": "25.8 ± 1.6", "unit": "µM"},
      {"measurement": "TNF", "setting": "peritoneal macrophages [3]", "result": 402, "unit": "pg/mL"},
      {"measurement": "TNF-α release", "setting": "peritoneal macrophages [4]", "result": "~3000", "unit": "pg/mL"},
      {"measurement": "NO production", "setting": "peritoneal macrophages [5]", "result": 7, "unit": "μm"}
    ]},
    {"molecule": "Interleukin-12: interleukin-12", "values": [
      {"measurement": "% Tumor Cytotoxicity (E/T = 15/1)", "setting": "autologous tumor cells", "result": 11, "unit": "%"}
    ]},
    {"molecule": "B1", "values": [
      {"measurement": "% Cytotoxicity", "setting": "Chang hepatoma cells [6]", "result": "14.31 ± 3", "unit": "%"},
      {"measurement": "% Tumor Cytotoxicity (E/T = 15/1)", "setting": "autologous tumor cells", "result": 3, "unit": "%"}
    ]}
  ]
}
